Columns and labels:
[1] = target: purified recombinant human insulin receptor (either with or without exon 11) (human) (UniProt P06213); assay: SPA competition vs A14Tyr[125I]-human insulin on recombinant human insulin receptor, relative to human insulin, 4.5% HSA in buffer
[2] = target: purified recombinant human insulin receptor (either with or without exon 11) (human) (UniProt P06213); assay: SPA competition vs A14Tyr[125I]-human insulin on recombinant human insulin receptor, relative to human insulin, 0% HSA

Sequence of purified recombinant human insulin receptor (either with or without exon 11) (human) (P06213 other isoform, or with tags, fused parts or gaps limits assumed, form in doubt): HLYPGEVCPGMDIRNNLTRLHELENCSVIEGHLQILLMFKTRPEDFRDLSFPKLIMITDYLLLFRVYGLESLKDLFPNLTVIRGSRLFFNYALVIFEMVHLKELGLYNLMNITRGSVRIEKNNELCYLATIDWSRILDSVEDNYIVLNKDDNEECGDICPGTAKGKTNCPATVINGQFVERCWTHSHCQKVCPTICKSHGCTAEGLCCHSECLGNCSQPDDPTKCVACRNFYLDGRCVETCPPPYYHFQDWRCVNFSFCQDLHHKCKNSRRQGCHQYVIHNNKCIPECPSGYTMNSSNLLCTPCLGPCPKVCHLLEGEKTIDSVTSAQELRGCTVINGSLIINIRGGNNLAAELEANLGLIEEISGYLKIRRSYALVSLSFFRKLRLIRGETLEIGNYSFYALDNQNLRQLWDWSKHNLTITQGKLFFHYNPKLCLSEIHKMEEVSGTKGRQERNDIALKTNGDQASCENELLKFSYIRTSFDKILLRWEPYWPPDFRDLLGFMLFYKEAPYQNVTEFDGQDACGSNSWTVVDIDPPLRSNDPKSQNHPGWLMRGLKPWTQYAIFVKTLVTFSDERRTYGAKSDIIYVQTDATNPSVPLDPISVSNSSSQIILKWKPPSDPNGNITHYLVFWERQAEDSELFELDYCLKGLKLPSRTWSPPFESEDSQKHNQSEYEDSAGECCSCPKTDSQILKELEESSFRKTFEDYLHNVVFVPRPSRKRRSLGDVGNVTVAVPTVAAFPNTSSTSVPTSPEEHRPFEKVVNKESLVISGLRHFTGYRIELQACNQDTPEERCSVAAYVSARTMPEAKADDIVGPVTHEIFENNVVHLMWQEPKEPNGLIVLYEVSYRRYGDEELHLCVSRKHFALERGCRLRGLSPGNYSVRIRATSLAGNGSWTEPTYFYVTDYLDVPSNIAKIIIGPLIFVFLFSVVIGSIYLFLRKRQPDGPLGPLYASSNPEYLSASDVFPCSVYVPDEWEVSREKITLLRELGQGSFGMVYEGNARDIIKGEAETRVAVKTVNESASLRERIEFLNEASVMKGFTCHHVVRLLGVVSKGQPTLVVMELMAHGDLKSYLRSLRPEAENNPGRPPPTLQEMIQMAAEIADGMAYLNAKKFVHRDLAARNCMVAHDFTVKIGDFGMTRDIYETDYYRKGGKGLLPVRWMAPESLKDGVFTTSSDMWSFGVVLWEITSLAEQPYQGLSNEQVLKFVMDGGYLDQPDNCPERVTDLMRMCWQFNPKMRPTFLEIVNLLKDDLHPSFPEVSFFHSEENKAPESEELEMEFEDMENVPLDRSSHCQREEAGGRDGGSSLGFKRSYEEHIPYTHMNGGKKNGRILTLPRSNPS

| Substance | Relative IR-A affinity (@ 4.5% HSA) [1] | Relative IR-A affinity (@ 0% HSA) [2] |
| --- | --- | --- |
| A14E, B25H, B27K(N^εOctadecanedioyl-γGlu-OEG-OEG), desB28, desB29, desB30 Human Insulin (from UniProt P01308 90-110; P01308 25-51) (ligand) | 0.08% | 1.9% |
| A14E, B25H, desB27, B29K(N^εOctadecanedioyl-γGlu-OEG-OEG), desB30 Human Insulin (from UniProt P01308 90-110; P01308 25-50; P01308 52-53) (ligand) | – | 2.5% |

From patent US20190112348A1
